Measured values: US20250228957A1 (BIOHAVEN THERAPEUTICS, published 2025)

Legend:
[1] = molecular target: Deglycosylated IgA (dg-IgA) (human, UniProt P01876-1 1-353, Human serum IgA was treated with PNGase, neuraminidase, and galactosidase; conjugated to Alexa Fluor 594 in the cell uptake assays); assay: cell-based or functional assay
[2] = molecular target: Total IgA; assay: cell-based or functional assay

Chain of Deglycosylated IgA (dg-IgA) (P01876 other isoform, or with tags, fused parts or gaps): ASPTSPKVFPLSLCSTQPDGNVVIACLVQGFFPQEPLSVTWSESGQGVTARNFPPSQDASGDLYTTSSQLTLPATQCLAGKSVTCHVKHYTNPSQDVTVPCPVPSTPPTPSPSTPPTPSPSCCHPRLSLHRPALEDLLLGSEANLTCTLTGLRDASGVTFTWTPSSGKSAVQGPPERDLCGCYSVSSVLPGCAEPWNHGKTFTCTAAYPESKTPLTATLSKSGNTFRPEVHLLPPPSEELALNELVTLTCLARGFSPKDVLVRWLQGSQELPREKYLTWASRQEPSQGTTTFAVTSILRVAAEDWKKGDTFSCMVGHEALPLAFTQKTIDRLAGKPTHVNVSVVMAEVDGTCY

B1: ABT030 (chimeric LALA PA mutant Km55 antibody) (antibody, human IgG1, kappa, L234A L235A, V domains shown)
VH: ELQLQESGPGLVKPSQSLSLTCSVTGYSIRSNYWGWIRKFPGNKMEWMGYITYSGGTYYNPSLKSRISITRDTSKNQFFLQLTSVTTEDTATYYCTRWGDWYFDFWGPGTKVTVSP
VL: DVVLTQTPPPLSVAIGQSVSISCKSSQSLVHTDGKTYLHWLLQSPGQSPKLLIYQVSNLGSGVPDRFSGTGSQKDFTLKISRVEAEDLGVYYCVQATHFPLTFGIGTKLELQR
EC50, Assay #1, uptake of A594-labelled cargo by HEK293 (+ASGPR) cells [1]: 0.353 nM
EC50, Assay #3, uptake of A594-labelled cargo by HEK293 (+ASGPR) cells [1]: 3.53 nM
S/N, Assay #1, uptake of A594-labelled cargo by HEK293 (+ASGPR) cells [1]: 4.3 signal-to-noise ratio
S/N, Assay #2, uptake of A594-labelled cargo by HEK293 (+ASGPR) cells [1]: 3.7 signal-to-noise ratio
S/N, Assay #3, uptake of A594-labelled cargo by HEK293 (+ASGPR) cells [1]: 7.1 signal-to-noise ratio
EC50, Assay #1, uptake of A594-labelled cargo by HEK293 (+ASGPR) cells [2]: 7.15 nM
